Results from paper PMC9352680, “A comprehensive thermodynamic model for RNA binding by the Saccharomyces cerevisiae Pumilio protein PUF4”.

T1: PUF4 RNA-binding domain (Saccharomyces cerevisiae, UniProt P25339 537-888)
T1 sequence: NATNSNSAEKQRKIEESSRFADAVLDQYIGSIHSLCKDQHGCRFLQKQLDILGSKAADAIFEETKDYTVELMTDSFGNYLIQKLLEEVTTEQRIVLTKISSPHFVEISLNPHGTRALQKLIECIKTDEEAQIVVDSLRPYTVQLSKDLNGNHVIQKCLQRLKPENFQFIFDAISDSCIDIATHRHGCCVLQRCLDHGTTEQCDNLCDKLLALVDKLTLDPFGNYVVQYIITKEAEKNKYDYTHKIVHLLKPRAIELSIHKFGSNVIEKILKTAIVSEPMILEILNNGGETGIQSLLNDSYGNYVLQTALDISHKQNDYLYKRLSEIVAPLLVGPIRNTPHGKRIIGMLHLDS

B1: Ia_S1_P3E.1_K3.1_C3.1_H3.1_[G2C]_A3.1_F3.1_T3.1 (ssRNA)
RNA: UCUCUUUCUAUAUAUCUCUU
B2: Ib_S2_P5E.1_K5.1_C5.1_H5.1_A5.1_[A7T]_F5.1_[T9A]_T5.1 (ssRNA)
RNA: UUUGAUUAAUAUGAUAUCGUUCUUUCUUGUAUUUUAAUUCUUUCUCGAUAUCAUAUUAAUCUUU
B3: Ib_S2_P5E.1_K5.1_C5.1_H5.1_[T1A]_A5.1_[T5C]_F5.1_T5.1 (ssRNA)
RNA: UUUGAUUAAUAUGAUAUCGUUCUUUCUAGUACUAUUAUUCUUUCUCGAUAUCAUAUUAAUCUUU
B4: Ib_S2_P5E.1_K5.1_C5.1_H5.1_A5.1_[T6A]_F5.1_[A10G]_T5.1 (ssRNA)
RNA: UUUGAUUAAUAUGAUAUCGUUCUUUCUUGUAUAAUUGUUCUUUCUCGAUAUCAUAUUAAUCUUU
B5: Ia_S2_P5E.1_K5.1_C5.1_H5.1_A5.1_F5.1_[A10G]_T5.1 (ssRNA)
RNA: UUUGAUUAAUAUGAUAUCGUUCUUUCUUGUAUUAUUGUUCUUUCUCGAUAUCAUAUUAAUCUUU
B6: Ib_S2_P5E.1_K5.1_C5.1_H5.1_[T1C]_A5.1_[T5C]_F5.1_T5.1 (ssRNA)
RNA: UUUGAUUAAUAUGAUAUCGUUCUUUCUCGUACUAUUAUUCUUUCUCGAUAUCAUAUUAAUCUUU
B7: Ib_S2_P5E.1_K5.1_C5.1_H5.1_A5.1_[T6C]_F5.1_[A10C]_T5.1 (ssRNA)
RNA: UUUGAUUAAUAUGAUAUCGUUCUUUCUUGUAUCAUUCUUCUUUCUCGAUAUCAUAUUAAUCUUU
B8: Ib_S2_P5E.1_K5.1_C5.1_H5.1_[T3G]_[A4C]_A5.1_F5.1_T5.1 (ssRNA)
RNA: UUUGAUUAAUAUGAUAUCGUUCUUUCUUGGCUUAUUAUUCUUUCUCGAUAUCAUAUUAAUCUUU
B9: Ib_S2_P5E.1_K5.1_C5.1_H5.1_[T3C]_[A4T]_A5.1_F5.1_T5.1 (ssRNA)
RNA: UUUGAUUAAUAUGAUAUCGUUCUUUCUUGCUUUAUUAUUCUUUCUCGAUAUCAUAUUAAUCUUU
B10: Ib_S2_P5E.1_K5.1_C5.1_H5.1_[G2T]_A5.1_[T6A]_F5.1_T5.1 (ssRNA)
RNA: UUUGAUUAAUAUGAUAUCGUUCUUUCUUUUAUAAUUAUUCUUUCUCGAUAUCAUAUUAAUCUUU
B11: Ia_S2_P5E.1_K5.1_C5.1_H5.1_[T1C]_A5.1_F5.1_T5.1 (ssRNA)
RNA: UUUGAUUAAUAUGAUAUCGUUCUUUCUCGUAUUAUUAUUCUUUCUCGAUAUCAUAUUAAUCUUU
B12: Ib_S2_P5E.1_K5.1_C5.1_H5.1_[T3C]_[A4C]_A5.1_F5.1_T5.1 (ssRNA)
RNA: UUUGAUUAAUAUGAUAUCGUUCUUUCUUGCCUUAUUAUUCUUUCUCGAUAUCAUAUUAAUCUUU
B13: Ia_S2_P5E.1_K5.1_C5.1_H5.1_A5.1_F5.1_[A10T]_T5.1 (ssRNA)
RNA: UUUGAUUAAUAUGAUAUCGUUCUUUCUUGUAUUAUUUUUCUUUCUCGAUAUCAUAUUAAUCUUU
B14: Ib_S2_P5E.1_K5.1_C5.1_H5.1_[G2C]_A5.1_[T6A]_F5.1_T5.1 (ssRNA)
RNA: UUUGAUUAAUAUGAUAUCGUUCUUUCUUCUAUAAUUAUUCUUUCUCGAUAUCAUAUUAAUCUUU
B15: Ib_S2_P5E.1_K5.1_C5.1_H5.1_[G2T]_[A4T]_A5.1_F5.1_T5.1 (ssRNA)
RNA: UUUGAUUAAUAUGAUAUCGUUCUUUCUUUUUUUAUUAUUCUUUCUCGAUAUCAUAUUAAUCUUU
B16: Ib_S2_P5E.1_K5.1_C5.1_H5.1_[T1A]_[G2T]_A5.1_F5.1_T5.1 (ssRNA)
RNA: UUUGAUUAAUAUGAUAUCGUUCUUUCUAUUAUUAUUAUUCUUUCUCGAUAUCAUAUUAAUCUUU
B17: Ib_S2_P5E.1_K5.1_C5.1_H5.1_A5.1_[T5G]_F5.1_[A10C]_T5.1 (ssRNA)
RNA: UUUGAUUAAUAUGAUAUCGUUCUUUCUUGUAGUAUUCUUCUUUCUCGAUAUCAUAUUAAUCUUU
B18: Ib_S2_P5E.1_K5.1_C5.1_H5.1_A5.1_[T5C]_F5.1_[A10C]_T5.1 (ssRNA)
RNA: UUUGAUUAAUAUGAUAUCGUUCUUUCUUGUACUAUUCUUCUUUCUCGAUAUCAUAUUAAUCUUU
B19: Ib_S2_P5E.1_K5.1_C5.1_H5.1_[T1C]_[A4T]_A5.1_F5.1_T5.1 (ssRNA)
RNA: UUUGAUUAAUAUGAUAUCGUUCUUUCUCGUUUUAUUAUUCUUUCUCGAUAUCAUAUUAAUCUUU
B20: Ib_S2_P5E.1_K5.1_C5.1_H5.1_[G2A]_A5.1_[T6C]_F5.1_T5.1 (ssRNA)
RNA: UUUGAUUAAUAUGAUAUCGUUCUUUCUUAUAUCAUUAUUCUUUCUCGAUAUCAUAUUAAUCUUU
B21: Ib_S2_P5E.1_K5.1_C5.1_H5.1_A5.1_[A7T]_F5.1_[A10G]_T5.1 (ssRNA)
RNA: UUUGAUUAAUAUGAUAUCGUUCUUUCUUGUAUUUUUGUUCUUUCUCGAUAUCAUAUUAAUCUUU
B22: Ib_S2_P5E.1_K5.1_C5.1_H5.1_A5.1_[T5C]_F5.1_[A10T]_T5.1 (ssRNA)
RNA: UUUGAUUAAUAUGAUAUCGUUCUUUCUUGUACUAUUUUUCUUUCUCGAUAUCAUAUUAAUCUUU
B23: Ib_S2_P5E.1_K5.1_C5.1_H5.1_[G2A]_[A4C]_A5.1_F5.1_T5.1 (ssRNA)
RNA: UUUGAUUAAUAUGAUAUCGUUCUUUCUUAUCUUAUUAUUCUUUCUCGAUAUCAUAUUAAUCUUU
B24: Ib_S2_P5E.1_K5.1_C5.1_H5.1_[G2C]_[A4G]_A5.1_F5.1_T5.1 (ssRNA)
RNA: UUUGAUUAAUAUGAUAUCGUUCUUUCUUCUGUUAUUAUUCUUUCUCGAUAUCAUAUUAAUCUUU
B25: Ib_S2_P5E.1_K5.1_C5.1_H5.1_[G2A]_A5.1_[T5G]_F5.1_T5.1 (ssRNA)
RNA: UUUGAUUAAUAUGAUAUCGUUCUUUCUUAUAGUAUUAUUCUUUCUCGAUAUCAUAUUAAUCUUU
B26: Ib_S2_P5E.1_K5.1_C5.1_H5.1_A5.1_[A7C]_F5.1_[A10C]_T5.1 (ssRNA)
RNA: UUUGAUUAAUAUGAUAUCGUUCUUUCUUGUAUUCUUCUUCUUUCUCGAUAUCAUAUUAAUCUUU
B27: Ia_S2_P5E.1_K5.1_C5.1_H5.1_A5.1_F5.1_[A10C]_T5.1 (ssRNA)
RNA: UUUGAUUAAUAUGAUAUCGUUCUUUCUUGUAUUAUUCUUCUUUCUCGAUAUCAUAUUAAUCUUU
B28: Ib_S2_P5E.1_K5.1_C5.1_H5.1_[G2C]_[A4C]_A5.1_F5.1_T5.1 (ssRNA)
RNA: UUUGAUUAAUAUGAUAUCGUUCUUUCUUCUCUUAUUAUUCUUUCUCGAUAUCAUAUUAAUCUUU
B29: Ib_S2_P5E.1_K5.1_C5.1_H5.1_[T1G]_[G2C]_A5.1_F5.1_T5.1 (ssRNA)
RNA: UUUGAUUAAUAUGAUAUCGUUCUUUCUGCUAUUAUUAUUCUUUCUCGAUAUCAUAUUAAUCUUU
B30: Ib_S2_P5E.1_K5.1_C5.1_H5.1_A5.1_[T5A]_F5.1_[A10T]_T5.1 (ssRNA)
RNA: UUUGAUUAAUAUGAUAUCGUUCUUUCUUGUAAUAUUUUUCUUUCUCGAUAUCAUAUUAAUCUUU
B31: Ib_S2_P5E.1_K5.1_C5.1_H5.1_[T1G]_[G2T]_A5.1_F5.1_T5.1 (ssRNA)
RNA: UUUGAUUAAUAUGAUAUCGUUCUUUCUGUUAUUAUUAUUCUUUCUCGAUAUCAUAUUAAUCUUU
B32: Ib_S2_P5E.1_K5.1_C5.1_H5.1_[T1A]_A5.1_[A7G]_F5.1_T5.1 (ssRNA)
RNA: UUUGAUUAAUAUGAUAUCGUUCUUUCUAGUAUUGUUAUUCUUUCUCGAUAUCAUAUUAAUCUUU
B33: Ib_S2_P5E.1_K5.1_C5.1_H5.1_A5.1_[T6A]_F5.1_[A10C]_T5.1 (ssRNA)
RNA: UUUGAUUAAUAUGAUAUCGUUCUUUCUUGUAUAAUUCUUCUUUCUCGAUAUCAUAUUAAUCUUU
B34: Ib_S2_P5E.1_K5.1_C5.1_H5.1_A5.1_[A7T]_F5.1_[A10C]_T5.1 (ssRNA)
RNA: UUUGAUUAAUAUGAUAUCGUUCUUUCUUGUAUUUUUCUUCUUUCUCGAUAUCAUAUUAAUCUUU
B35: Ib_S2_P5E.1_K5.1_C5.1_H5.1_[T1A]_A5.1_[T6C]_F5.1_T5.1 (ssRNA)
RNA: UUUGAUUAAUAUGAUAUCGUUCUUUCUAGUAUCAUUAUUCUUUCUCGAUAUCAUAUUAAUCUUU
B36: Ic_S2_P5E.1_K5.1_C5.1_H5.1_A5.1_[A7T]_F5.1_[A10T]_T5.1 (ssRNA)
RNA: UUUGAUUAAUAUGAUAUCGUUCUUUCUUGUAUUUUUUUUCUUUCUCGAUAUCAUAUUAAUCUUU
B37: Ib_S2_P5E.1_K5.1_C5.1_H5.1_[T1C]_[T3C]_A5.1_F5.1_T5.1 (ssRNA)
RNA: UUUGAUUAAUAUGAUAUCGUUCUUUCUCGCAUUAUUAUUCUUUCUCGAUAUCAUAUUAAUCUUU
B38: Ib_S2_P5E.1_K5.1_C5.1_H5.1_A5.1_[T5G]_F5.1_[A10G]_T5.1 (ssRNA)
RNA: UUUGAUUAAUAUGAUAUCGUUCUUUCUUGUAGUAUUGUUCUUUCUCGAUAUCAUAUUAAUCUUU
B39: Ib_S2_P5E.1_K5.1_C5.1_H5.1_[T3G]_[A4T]_A5.1_F5.1_T5.1 (ssRNA)
RNA: UUUGAUUAAUAUGAUAUCGUUCUUUCUUGGUUUAUUAUUCUUUCUCGAUAUCAUAUUAAUCUUU
B40: Ib_S2_P5E.1_K5.1_C5.1_H5.1_[G2T]_A5.1_[T5C]_F5.1_T5.1 (ssRNA)
RNA: UUUGAUUAAUAUGAUAUCGUUCUUUCUUUUACUAUUAUUCUUUCUCGAUAUCAUAUUAAUCUUU
B41: Ib_S2_P5E.1_K5.1_C5.1_H5.1_[G2T]_A5.1_[T6C]_F5.1_T5.1 (ssRNA)
RNA: UUUGAUUAAUAUGAUAUCGUUCUUUCUUUUAUCAUUAUUCUUUCUCGAUAUCAUAUUAAUCUUU
B42: Ib_S2_P5E.1_K5.1_C5.1_H5.1_[G2C]_A5.1_[T5A]_F5.1_T5.1 (ssRNA)
RNA: UUUGAUUAAUAUGAUAUCGUUCUUUCUUCUAAUAUUAUUCUUUCUCGAUAUCAUAUUAAUCUUU
B43: Ib_S2_P5E.1_K5.1_C5.1_H5.1_A5.1_[T6C]_F5.1_[A10T]_T5.1 (ssRNA)
RNA: UUUGAUUAAUAUGAUAUCGUUCUUUCUUGUAUCAUUUUUCUUUCUCGAUAUCAUAUUAAUCUUU
B44: Ib_S2_P5E.1_K5.1_C5.1_H5.1_A5.1_[T6A]_F5.1_[A10T]_T5.1 (ssRNA)
RNA: UUUGAUUAAUAUGAUAUCGUUCUUUCUUGUAUAAUUUUUCUUUCUCGAUAUCAUAUUAAUCUUU
B45: Ib_S2_P5E.1_K5.1_C5.1_H5.1_[T1A]_[G2C]_A5.1_F5.1_T5.1 (ssRNA)
RNA: UUUGAUUAAUAUGAUAUCGUUCUUUCUACUAUUAUUAUUCUUUCUCGAUAUCAUAUUAAUCUUU

Target: T1, PUF4 RNA-binding domain
Experiment: Mg; RNA-MaP; 20 mM Na-HEPES pH 7.4, 30 mM KOAc, 0.75 mM MgCl2, 0.1% Tween-20, 5% glycerol, 0.1 mg/mL BSA, 2 mM DTT; 25 C; 0.0125-409.6 nM protein
Settings: tags: N-His6-TEV cleaved; C-SNAP kept, Cy3B-labelled; label: tethered on chip by stalled RNA polymerase

Row | Binder | Kd [nM]
1 | B1 | > 2300
2 | B2 | 2.01
3 | B3 | > 2300
4 | B4 | 7.49
5 | B5 | 7.81
6 | B6 | 331
7 | B7 | 6.38
8 | B8 | 1020
9 | B9 | 930
10 | B10 | 1970
11 | B11 | 258
12 | B12 | 1540
13 | B13 | 7.7
14 | B14 | > 2300
15 | B15 | > 2300
16 | B16 | 1610
17 | B17 | 61.5
18 | B18 | 4.69
19 | B19 | 836
20 | B20 | 353
21 | B21 | 10.8
22 | B22 | 3.1
23 | B23 | 810

Row | Binder | Kd [nM]
24 | B24 | 522
25 | B25 | 1490
26 | B26 | 14.5
27 | B27 | 12.7
28 | B28 | > 2300
29 | B29 | 1120
30 | B30 | 9.98
31 | B31 | 39.1
32 | B32 | > 2300
33 | B33 | 6.16
34 | B34 | 13
35 | B35 | 1680
36 | B36 | 18.3
37 | B37 | > 2300
38 | B38 | 84.5
39 | B39 | 965
40 | B40 | > 2300
41 | B41 | 2030
42 | B42 | 870
43 | B43 | 4.73
44 | B44 | 6.98
45 | B45 | 1400
